Reference: publication PMC9734910

Molecular target: PDF-2180 S ectodomain trimer (PDF-2180 (bat coronavirus, infects Pipisrellus hesperidus) | not stated)
Experiment: cryo-EM structure

“PDF-2180 S ectodomain trimer (domain or fragment)” was tested, and the stoichiometry N was 3.
